Laboratory results reported in article PMC4756369 (2016).
Changes are numbered by the printed parent chain.

B1: β-III-spectrin ABD 1-284 (protein)
chain: MSSTLSPTDFDSLEIQGQYSDINNRWDLPDSDWDNDSSSARLFERSRIKALADEREAVQKKTFTKWVNSHLARVTCRVGDLYSDLRDGRNLLRLLEVLSGEILPKPTKGRMRIHCLENVDKALQFLKEQKVHLENMGSHDIVDGNHRLTLGLVWTIILRFQIQDISVETEDNKEKKSAKDALLLWCQMKTAGYPNVNVHNFTTSWRDGLAFNAIVHKHRPDLLDFESLKKCNAHYNLQNAFNLAEKELGLTKPLDPEDVNVDQPDEKSIITYVATYYHYFSKMK
B2: β-III-spectrin ABD 1-284 (protein)
chain: B1 chain with P253L

Experiments:
[1] = biological target: F-actin (skeletal muscle, phalloidin stabilized) (Oryctolagus cuniculus, UniProt P68135); test: co-sedimentation
[2] = biological target: F-actin (skeletal muscle) (Oryctolagus cuniculus, UniProt P68135); test: co-sedimentation

Binder | Kd [1] [µM] | Kd [2] [µM]
B1 | 0.0755 | 
B2 |  | 75.8
